Reference: patent publication US20170158768A1 (PENN STATE RESEARCH FOUNDATION, published 2017)

B1: CD36 (receptor, mouse, UniProt Q08857 1-472, looked up)
chain: MGCDRNCGLIAGAVIGAVLAVFGGILMPVGDMLIEKTIKREVVLEEGTTAFKNWVKTGTTVYRQFWIFDVQNPDDVAKNSSKIKVKQRGPYTYRVRYLAKENITQDPEDHTVSFVQPNGAIFEPSLSVGTEDDNFTVLNLAVAAAPHIYQNSFVQVVLNSLIKKSKSSMFQTRSLKELLWGYKDPFLSLVPYPISTTVGVFYPYNDTVDGVYKVFNGKDNISKVAIIESYKGKRNLSYWPSYCDMINGTDAASFPPFVEKSRTLRFFSSDICRSIYAVFGSEIDLKGIPVYRFVLPANAFASPLQNPDNHCFCTEKVISNNCTSYGVLDIGKCKEGKPVYISLPHFLHASPDVSEPIEGLHPNEDEHRTYLDVEPITGFTLQFAKRLQVNILVKPARKIEALKNLKRPYIVPILWLNETGTIGDEKAEMFKTQVTGKIKLLGMVEMALLGIGVVMFVAFMISYCACKSKNGK
B2: TLR-2 (receptor, mouse, UniProt Q9QUN7 25-784, looked up)
chain: QESLSCDASGVCDGRSRSFTSIPSGLTAAMKSLDLSFNKITYIGHGDLRACANLQVLILKSSRINTIEGDAFYSLGSLEHLDLSDNHLSSLSSSWFGPLSSLKYLNLMGNPYQTLGVTSLFPNLTNLQTLRIGNVETFSEIRRIDFAGLTSLNELEIKALSLRNYQSQSLKSIRDIHHLTLHLSESAFLLEIFADILSSVRYLELRDTNLARFQFSPLPVDEVSSPMKKLAFRGSVLTDESFNELLKLLRYILELSEVEFDDCTLNGLGDFNPSESDVVSELGKVETVTIRRLHIPQFYLFYDLSTVYSLLEKVKRITVENSKVFLVPCSFSQHLKSLEFLDLSENLMVEEYLKNSACKGAWPSLQTLVLSQNHLRSMQKTGEILLTLKNLTSLDISRNTFHPMPDSCQWPEKMRFLNLSSTGIRVVKTCIPQTLEVLDVSNNNLDSFSLFLPRLQELYISRNKLKTLPDASLFPVLLVMKIRENAVSTFSKDQLGSFPKLETLEAGDNHFVCSCELLSFTMETPALAQILVDWPDSYLCDSPPRLHGHRLQDARPSVLECHQAALVSGVCCALLLLILLVGALCHHFHGLWYLRMMWAWLQAKRKPKKAPCRDVCYDAFVSYSEQDSHWVENLMVQQLENSDPPFKLCLHKRDFVPGKWIIDNIIDSIEKSHKTVFVLSENFVRSEWCKYELDFSHFRLFDENNDAAILVLLEPIERKAIPQRFCKLRKIMNTKTYLEWPLDEGQQEVFWVNLRTAIKS

Target: T1, CD11b (mouse, UniProt P05555 17-1153)
T1 construct: Endogenous protein immunoprecipitated from Raw264.7 macrophage extracts with monoclonal CD11b antibody; Its integrin beta partner is not mentioned
Assay: co-immunoprecipitation with monoclonal CD11b antibody, Western blot

T1 sequence (P05555 17-1153 limits assumed): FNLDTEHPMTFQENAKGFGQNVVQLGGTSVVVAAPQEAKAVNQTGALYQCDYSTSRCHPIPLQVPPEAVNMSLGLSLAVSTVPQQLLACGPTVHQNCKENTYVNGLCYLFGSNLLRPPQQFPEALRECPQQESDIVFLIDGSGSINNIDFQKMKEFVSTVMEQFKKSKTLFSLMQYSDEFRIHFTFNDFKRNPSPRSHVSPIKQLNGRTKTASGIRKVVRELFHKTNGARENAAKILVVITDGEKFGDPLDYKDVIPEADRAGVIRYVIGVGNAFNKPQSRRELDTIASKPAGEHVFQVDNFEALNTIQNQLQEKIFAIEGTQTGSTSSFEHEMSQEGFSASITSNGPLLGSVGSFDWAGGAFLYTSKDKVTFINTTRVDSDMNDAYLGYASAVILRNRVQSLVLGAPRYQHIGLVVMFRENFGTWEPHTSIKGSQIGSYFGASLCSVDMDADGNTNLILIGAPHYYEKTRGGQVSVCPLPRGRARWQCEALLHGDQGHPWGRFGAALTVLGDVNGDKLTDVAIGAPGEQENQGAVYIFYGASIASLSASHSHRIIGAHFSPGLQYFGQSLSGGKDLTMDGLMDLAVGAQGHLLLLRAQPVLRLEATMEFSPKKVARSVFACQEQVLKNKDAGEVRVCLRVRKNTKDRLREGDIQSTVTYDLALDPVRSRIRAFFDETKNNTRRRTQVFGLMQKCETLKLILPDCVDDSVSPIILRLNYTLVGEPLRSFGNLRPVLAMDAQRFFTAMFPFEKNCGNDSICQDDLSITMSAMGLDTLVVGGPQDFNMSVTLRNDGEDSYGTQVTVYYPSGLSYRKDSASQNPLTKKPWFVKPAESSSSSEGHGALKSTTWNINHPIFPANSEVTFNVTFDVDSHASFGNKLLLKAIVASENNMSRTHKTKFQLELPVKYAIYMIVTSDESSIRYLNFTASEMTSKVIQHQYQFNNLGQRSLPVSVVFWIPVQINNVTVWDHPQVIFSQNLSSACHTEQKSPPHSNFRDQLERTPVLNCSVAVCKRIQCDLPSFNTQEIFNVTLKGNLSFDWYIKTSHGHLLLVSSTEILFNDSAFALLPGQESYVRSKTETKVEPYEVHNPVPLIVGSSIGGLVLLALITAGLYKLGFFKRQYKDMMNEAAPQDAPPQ

Binder | binding result
B1 | no binding
B2 | no binding
